± gives the uncertainty stated by the source.
B1: Integrator complex subunit 12, residues 155 to 213; numbered along this chain, Q96CB8 (parent)
chain: AMEMGLACVVCRQMMVASGNQLVECQECHNLYHRDCHKPQVTDKEANDPRLVWYCARCT

Variants of: B1
Assay: abundance fitness (aPCA) (normalised: wild type 0, dead -1); higher = more abundant; growth selection in yeast, the domain comes from the species named
Conditions: Homo sapiens

Variant | abundance fitness
H33K | -0.542 ± 0.068
H33C | 0.013 ± 0.035
H33G | -0.668 ± 0.037
H37F | -0.226 ± 0.033
H37P | -0.645 ± 0.054
H37L | -0.145 ± 0.033
V10W | -0.381 ± 0.067
V10P | -0.627 ± 0.048
Q21W | -0.223 ± 0.065
E24I | -0.387 ± 0.041
E24W | -0.563 ± 0.096
E24C | -0.219 ± 0.043
E24G | -0.3 ± 0.043
D35E | 0.107 ± 0.051
D35M | 0.042 ± 0.05
D35K | -0.087 ± 0.057
S18F | -0.124 ± 0.034
N20T | -0.007 ± 0.038
N20D | 0.005 ± 0.036
N20A | -0.03 ± 0.035
Y32D | -0.525 ± 0.044
L6M | 0.086 ± 0.053
L6F | -0.081 ± 0.036
L6T | 0.041 ± 0.04

Variant | abundance fitness
V9W | -0.45 ± 0.095
V9S | -0.118 ± 0.032
G5S | 0.007 ± 0.03
G5P | -0.053 ± 0.051
G5M | -0.152 ± 0.055
G5T | -0.045 ± 0.039
E45M | -0.193 ± 0.068
L31Y | 0.047 ± 0.038
L31I | 0.01 ± 0.036
L31R | 0.091 ± 0.034
L31F | 0.075 ± 0.034
A56E | -0.08 ± 0.043
A56V | -0.128 ± 0.036
K38T | 0.011 ± 0.045
K38G | -0.15 ± 0.05
K38D | 0.081 ± 0.074
M2P | -0.31 ± 0.075
M2I | 0.059 ± 0.04
Y54N | 0.007 ± 0.081
Y54W | -0.222 ± 0.063
Y54I | -0.113 ± 0.082
C55A | -0.809 ± 0.066
C55T | -1.16 ± 0.11
C55Q | -1.01 ± 0.13

Variant | abundance fitness
C55P | -0.891 ± 0.11
C55D | -0.507 ± 0.14
P39F | -0.308 ± 0.11
P39L | -0.294 ± 0.045
P39I | -0.184 ± 0.1
V23D | -0.296 ± 0.042
V23K | -0.164 ± 0.055
V41Y | -0.346 ± 0.12
V41N | -0.481 ± 0.096
V41H | -0.639 ± 0.11
T59N | -0.205 ± 0.16
T59G | -0.13 ± 0.082
T59M | -0.237 ± 0.13
T59A | 0.016 ± 0.074
T59V | -0.227 ± 0.12
A7F | -0.172 ± 0.038
A7C | -0.022 ± 0.04
A7L | -0.064 ± 0.037
A7H | 0.078 ± 0.044
A7W | -0.41 ± 0.078
A46H | -0.181 ± 0.072
A46M | -0.201 ± 0.068
A46Y | -0.029 ± 0.071
M4P | -0.022 ± 0.057

Variant | abundance fitness
M4K | -0.034 ± 0.072
E3L | -0.321 ± 0.04
K44R | -0.042 ± 0.043
K44L | -0.121 ± 0.049
K44I | 0.024 ± 0.082
K44M | -0.036 ± 0.05
K44D | 0.078 ± 0.059
W53P | -0.302 ± 0.058
W53Y | -0.322 ± 0.16
A17T | -0.065 ± 0.044
A17S | 0.006 ± 0.035
A17Q | 0.069 ± 0.09
A17N | 0.001 ± 0.039
T42N | -0.041 ± 0.053
T42Y | -0.165 ± 0.1
T42F | -0.24 ± 0.094
T42C | 0.069 ± 0.074
T42P | 0.039 ± 0.041
D48S | -0.119 ± 0.062
D48C | -0.265 ± 0.12
C8H | -0.901 ± 0.058
C8D | -0.787 ± 0.066
C8M | -1.19 ± 0.11
C8S | -0.757 ± 0.039

Variant | abundance fitness
Q26W | -0.117 ± 0.065
Q26K | -0.039 ± 0.062
Q26D | -0.147 ± 0.068
L22I | -0.036 ± 0.042
L22N | -0.042 ± 0.045
L22P | -0.115 ± 0.07
V16K | 0.03 ± 0.065
V16Q | -0.013 ± 0.072
V16W | -0.148 ± 0.055
L51Y | -0.169 ± 0.071
L51V | -0.003 ± 0.052
A1K | 0.154 ± 0.25
A1T | 0.125 ± 0.068
A1V | 0.037 ± 0.043
C28R | -0.816 ± 0.042
C28P | -0.787 ± 0.081
C28H | -0.664 ± 0.047
C28V | -0.845 ± 0.04
C28L | -0.773 ± 0.048
E27S | -0.007 ± 0.03
E27K | 0.087 ± 0.063
E27V | -0.184 ± 0.031
C58G | -0.851 ± 0.059
C58T | -0.918 ± 0.085

Variant | abundance fitness
C58M | -1.09 ± 0.13
C58S | -1.1 ± 0.074
C25M | -0.792 ± 0.17
C25D | -0.655 ± 0.074
N30Y | -0.081 ± 0.045
N30F | -0.179 ± 0.045
N30D | 0.079 ± 0.041
N30C | 0.013 ± 0.044
N30P | -0.706 ± 0.11
D43Y | -0.161 ± 0.067
C11K | -0.761 ± 0.092
C11F | -0.898 ± 0.046
C11I | -0.856 ± 0.049
C11Y | -1 ± 0.05
R34Q | 0.082 ± 0.066
R34F | 0.016 ± 0.076
R34C | -0.17 ± 0.087
R34Y | 0.058 ± 0.073
R34P | 0.067 ± 0.08
V52P | 0.019 ± 0.052
V52F | -0.126 ± 0.064
R57C | -0.075 ± 0.068
R57T | 0.057 ± 0.056
R57G | 0.051 ± 0.035

Variant | abundance fitness
P49L | -0.101 ± 0.048
P49S | -0.007 ± 0.053
P49H | -0.132 ± 0.17
P49E | 0.027 ± 0.05
P49A | -0.046 ± 0.049
P49M | -0.06 ± 0.069
R12S | 0.055 ± 0.031
R12I | -0.74 ± 0.044
R12M | -0.081 ± 0.056
N47A | -0.166 ± 0.053
N47H | 0.011 ± 0.073
H29V | -0.438 ± 0.035
H29K | 0.084 ± 0.073
H29L | -0.275 ± 0.039
H29P | -0.612 ± 0.057
Q13V | -0.114 ± 0.041
Q13D | -0.075 ± 0.046
Q13S | -0.033 ± 0.032
Q13H | -0.043 ± 0.039
Q13N | -0.024 ± 0.036
Q13M | -0.132 ± 0.05
Q13L | -0.088 ± 0.033
C36W | -0.843 ± 0.079

Source: the Human Domainome abundance scans (Beltran et al. 2025)
